The text below walks through data of publication PMC5395295.

The target in assay [1] is Pleurobrachia collagen IV NC1 domains (collagenase-solubilised NC1 hexamer) (Pleurobrachia (endogenous in whole ctenophore tissue)). The experiment in a line: SDS-PAGE under reducing and non-reducing conditions with Western blot; NC1 hexamer fractions from gel filtration; 12% gels, 5% beta-mercaptoethanol or none; for Beroe reduction in TBS with various concentrations of DTT (30 min, 37°C), alkylation with iodoacetamide, non-reducing SDS-PAGE; blot with JK-2.

The target is the same in assay [2]. In words: SEC; collagenase digest of whole ctenophore tissue on Superdex 200 10/300 GL; elution compared with native, purified placental basement membrane NC1 hexamer run successively; fractions 12 mL to 16.4 mL blotted with NC1-specific monoclonal antibody (JK-2). A general note: In gel filtration, larger molecules generally elute earlier.
Assay [3] concerns the target Beroe collagen IV NC1 domains (collagenase-solubilised NC1 hexamer) (Beroe (endogenous in whole ctenophore tissue)). In words: SDS-PAGE under reducing and non-reducing conditions with Western blot; NC1 hexamer fractions from gel filtration; 12% gels, 5% beta-mercaptoethanol or none; for Beroe reduction in TBS with various concentrations of DTT (30 min, 37°C), alkylation with iodoacetamide, non-reducing SDS-PAGE; blot with JK-2. A general note: Immunoblotting shows a protein as a band on a membrane.

For assay [4] the target is unchanged. The experiment in a line: SEC; collagenase digest of whole ctenophore tissue on Superdex 200 10/300 GL; elution compared with native, purified placental basement membrane NC1 hexamer run successively; fractions 12 mL to 16.4 mL blotted with NC1-specific monoclonal antibody (JK-2).
In assay [5] the target is Mnemiopsis collagen IV NC1 domains (collagenase-solubilised NC1 hexamer) (Mnemiopsis (endogenous in whole ctenophore tissue)). In words: SDS-PAGE under reducing and non-reducing conditions with Western blot; NC1 hexamer fractions from gel filtration; 12% gels, 5% beta-mercaptoethanol or none; for Beroe reduction in TBS with various concentrations of DTT (30 min, 37°C), alkylation with iodoacetamide, non-reducing SDS-PAGE; blot with JK-2.

The target is the same in assay [6]. In words: SEC; collagenase digest of whole ctenophore tissue on Superdex 200 10/300 GL; elution compared with native, purified placental basement membrane NC1 hexamer run successively; fractions 12 mL to 16.4 mL blotted with NC1-specific monoclonal antibody (JK-2).

As usually defined, the stoichiometry N is the number of molecules, sites or subunits per partner or assembly.

As for “Pleurobrachia collagen IV NC1 domains (collagenase-solubilised NC1 hexamer)”, the stoichiometry N in assay [1] came out at 2; in assay [2], 6.

For “Beroe collagen IV NC1 domains (collagenase-solubilised NC1 hexamer)”, the stoichiometry N in assay [3] was 2; in assay [4], 6.

With “Mnemiopsis collagen IV NC1 domains (collagenase-solubilised NC1 hexamer)”, the stoichiometry N in assay [5] is 2; in assay [6], 6.
